The source of these data is PMC11272584 (Nature Metabolism, 2024).

One assay addresses T1, GIPR H166Y (human) (UniProt P48546).
T1 sequence: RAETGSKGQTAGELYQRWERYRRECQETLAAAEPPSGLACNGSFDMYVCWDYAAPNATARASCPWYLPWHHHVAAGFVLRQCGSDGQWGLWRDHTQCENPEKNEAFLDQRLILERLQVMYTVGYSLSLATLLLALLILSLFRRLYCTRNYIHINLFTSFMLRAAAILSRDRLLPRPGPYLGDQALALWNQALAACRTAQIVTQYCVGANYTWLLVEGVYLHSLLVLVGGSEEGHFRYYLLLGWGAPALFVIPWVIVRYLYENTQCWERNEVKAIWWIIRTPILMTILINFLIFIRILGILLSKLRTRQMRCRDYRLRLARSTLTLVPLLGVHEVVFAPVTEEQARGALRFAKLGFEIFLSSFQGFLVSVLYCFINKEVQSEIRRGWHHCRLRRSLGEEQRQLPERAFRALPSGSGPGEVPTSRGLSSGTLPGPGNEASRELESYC

The target in the next assay is T2, GIPR R336P (human) (UniProt P48546).
T2 sequence: T1 sequence with Y145H, R315P

A further assay has as its target T3, GIPR T116R (human) (UniProt P48546).
T3 sequence: T1 sequence with T95R, Y145H

A further assay concerns the target T4, GIPR A294V (human) (UniProt P48546).
T4 sequence: T1 sequence with Y145H, A273V

The target in another assay is T5, GIPR I378M (human) (UniProt P48546).
T5 sequence: T1 sequence with Y145H, I357M

The target in the next assay is T6, GIPR A185V (human) (UniProt P48546).
T6 sequence: T1 sequence with Y145H, A164V

Where a chain is given by its changes, count along the chain named.

Consider “β-arrestin 2 (Rluc8-Arrestin-3-Sp1) (from UniProt P32121 1-409) (natural protein)”, for which the β-arrestin 2 recruitment (BRET) on stimulation with GIP(1-42): logEC50 (Arrestin) (log M (inferred)) was -9.22 with GIPR H166Y (human); -8.82 with GIPR R336P (human); -8.71 with GIPR T116R (human); -9.01 with GIPR A294V (human); -9.13 with GIPR I378M (human); -8.96 in the assay with GIPR A185V (human).
